The target of data set [1] is MLL1 PHD3 (Homo sapiens) (UniProt Q03164). As to conditions: cited from earlier work.
The target in data set [2] is T1, FL-Cyp33 (human, UniProt Q9UNP9 1-301). The data set is described as follows: EMSA; EMSA: SELEX buffer (composition in S2 Table, not in material; physiological salt is 135 mM KCl, 15 mM NaCl) + 10% glycerol, 5 nM RNA, 0.5X TBE 8% PAGE at room temperature; NMR: SELEX buffer + 10% D2O, 25 C; pH not given. As to conditions: protein: recombinant, 6xHis-thrombin construct for NMR, hairpin (predicted).

The target of data set [3] is T1, FL-Cyp33. In words: EMSA; no quantifiable binding by gel shift; EMSA: SELEX buffer (composition in S2 Table, not in material; physiological salt is 135 mM KCl, 15 mM NaCl) + 10% glycerol, 5 nM RNA, 0.5X TBE 8% PAGE at room temperature; NMR: SELEX buffer + 10% D2O, 25 C; pH not given. As to conditions: protein: recombinant; 6xHis-thrombin construct for NMR; single strand. (A gel shift assay detects complexes by their altered migration in electrophoresis.)

For data set [4], the target named is Cyp33-Cyp (human, UniProt Q9UNP9 131-301). The data set is described as follows: NMR 1H-15N HSQC; no significant perturbation; EMSA: SELEX buffer (composition in S2 Table, not in material; physiological salt is 135 mM KCl, 15 mM NaCl) + 10% glycerol, 5 nM RNA, 0.5X TBE 8% PAGE at room temperature; NMR: SELEX buffer + 10% D2O, 25 C; pH not given. As to conditions: protein: recombinant; tags: C-terminal 6xHis, pET15b; label: 5'-32P (EMSA); hairpin (predicted).
Cyp33-Cyp, sequence (Q9UNP9 131-301): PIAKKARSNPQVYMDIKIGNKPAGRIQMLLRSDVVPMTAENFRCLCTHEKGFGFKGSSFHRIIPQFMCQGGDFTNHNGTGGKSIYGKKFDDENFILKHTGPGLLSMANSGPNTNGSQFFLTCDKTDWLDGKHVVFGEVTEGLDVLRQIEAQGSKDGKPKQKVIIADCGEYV

T1 sequence (Q9UNP9 whole entry): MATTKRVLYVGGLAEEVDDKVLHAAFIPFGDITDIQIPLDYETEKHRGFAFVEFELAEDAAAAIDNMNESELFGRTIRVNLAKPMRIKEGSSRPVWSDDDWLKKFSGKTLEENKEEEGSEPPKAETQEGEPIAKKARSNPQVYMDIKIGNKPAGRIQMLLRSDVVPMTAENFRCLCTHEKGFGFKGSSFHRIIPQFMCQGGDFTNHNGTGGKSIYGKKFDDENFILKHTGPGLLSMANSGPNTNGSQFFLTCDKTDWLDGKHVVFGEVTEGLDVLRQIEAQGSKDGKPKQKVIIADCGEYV
MLL1 PHD3 (Homo sapiens), sequence (Q03164 1566-1627): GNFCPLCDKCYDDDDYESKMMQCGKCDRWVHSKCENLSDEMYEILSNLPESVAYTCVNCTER

The Kd is the equilibrium constant for the complex coming apart. In the case of Cyp33 RRM (from UniProt Q9UNP9), the Kd in data set [1] is 1.9 µM.
For the molecule CAGGUGUGUGACUACGAAAGAACAAUAAUAACACAAAAGAGUCCCGUGCC (structured_RNA) [SO-2], the Kd in data set [2] (label: 5'-32P) was 21 ± 3.1 µM.

B1: SO-8 (structured_RNA)
RNA: AGAACAAUAAUUACAAAGACUGAGCGUUUUAAAGUCUCCUCAUGUGCCCCC
As for B1, the Kd in data set [2] (label: 5'-32P) was 24 ± 13 µM.
Take AAAGUGAGAUAAGGUAACAACAAGAAUAAUAAUAUACCUAUCAUCUUGCC (structured_RNA) [SO-9]: the Kd in data set [2] (label: 5'-32P) is roughly 90 µM.
Consider UGGCCGGCCCAUCCCGACUGCCGGGUGAUAGACUCUUUAGCGAUUUAUGG (structured_RNA) [SO-4], for which the Kd in data set [2] (label: 5'-32P) is 55 ± 10 µM.
Consider AAUAAUAA (ssRNA) [AAUAAUAA k-mer], for which the binding result in data set [3] was “no binding”.
As for AGGUGCCUCAAAUCCGCAUAAGAAUAACAACAUGGAGUGAAGCGCUCCCC (structured_RNA) [SO-6], in data set [2] (label: 5'-32P), the Kd was 36 ± 10 µM.
Turning to AGUGAUAAUUAA (ssRNA) [SO-1 single-stranded region 12-mer], in data set [3], the binding result is “no binding”.
For the molecule UGGUAGACCAGUGAUAAUUAACCUGAUGCGUGGAGGAUAUCGAGUUGUCC (structured_RNA) [SO-1], the binding result in data set [4] was “no binding”. The Kd in data set [2] (label: 5'-32P (EMSA)) was 6.6 ± 0.6 µM.
Turning to UGGUAGACCAGUGAUAAUUAACCUGAUG (structured_RNA) [SO-3], the Kd in data set [2] (label: 5'-32P) was 32 ± 2.5 µM.

The record behind these values is PMC7894885, “Cyp33 binds AU-rich RNA motifs via an extended interface that competitively disrupts the gene repressive Cyp33-MLL1 interaction in vitro”.
